Data set [1] concerns MS2 coat protein. In words: apparent KD of MS2 coat protein; designed switch direction (-1 OFF switch, 1 ON switch): 1; higher = weaker reporter binding. As to conditions: Eterna round: R98. The method, then:
(§1)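 RNA-MaP: designed FMN/MS2 RNA switches (84 nt design region) are transcribed on-chip within common flanks and titrated with SNAP-549-labelled MS2 coat protein (about 1-3000 nM) in 100 mM Tris pH 7.5, 80 mM KCl, 4 mM MgCl2, without or with 200 uM FMN. Median apparent KD per design; activation ratio = KD,OFF / KD,ON.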

For data set [2], the system named is MS2 coat protein. Briefly: apparent KD of MS2 coat protein; higher = weaker reporter binding. The note with it: Eterna round: R101. The protocol:
as §1

Data set [3] concerns MS2 coat protein. Briefly: apparent KD of MS2 coat protein, switch ON state; designed switch direction (-1 OFF switch, 1 ON switch): 1; higher = weaker reporter binding. The note with it: FMN input: 0 or 200 uM; Eterna round: R93 (includes R88 designs). Put shortly: (§2)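 The buffer was 100 mM Tris-HCl pH 7.5 with 80 mM KCl and 4 mM MgCl2, used without or with constant ligand. In it, RNA switches transcribed on-chip from Illumina sequencing clusters were titrated with SNAP-549-labelled MS2 coat protein in twofold steps from 0.7 or 1.5 nM to 3 µM. Apparent KD for each design is the median of its normalised cluster binding-curve fits.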

In data set [4] the test system is MS2 coat protein. In words: apparent KD of MS2 coat protein, switch OFF state (with FMN for OFF switches, without FMN for ON switches); designed switch direction (-1 OFF switch, 1 ON switch): 1; higher = weaker reporter binding. The note with it: FMN input: 0 or 200 uM; Eterna round: R93 (includes R88 designs). Put shortly: as §2

As for “UAGAUAUGGUGAGGAUAUGCAGAGGAUCACCCUGUAGAAGGCAUCAGGGUAGAAGGUGCAAGGAUCACCUGUAAGGAUAUAUCC [pwkr2 ssNG1 DX.29]”, the “apparent KD of MS2 coat protein” value in the data set on MS2 coat protein [1] (input ligand: FMN 200 uM) was 917 nM; with MS2 coat protein [1] (input ligand: none), 1050 nM.

As for “GCUUGCGACGCAGGAUAUGGGUGCCUGCACACGAGGAUCACCCGUGUAGAGGAAGCGAAAAGCUCUCAGAAGGGCGUCGCAGGC [United States 5 - Jieux - Same State NG 2]”, the results for the “apparent KD of MS2 coat protein” value in the data set with MS2 coat protein [1] (input ligand: FMN 200 uM) and in the data set on MS2 coat protein [1] (input ligand: none) were 20.7 nM and 45.3 nM, respectively.

In the case of “AAAUAACUUGAAGGAUAUCAGGGUGCACCUCAGUAAAACUGAGGUGCACCCUGAGAAGGUCGAGGAUCACCCGACCUAGUGAAA [#SharedSequence SLExNG1: 7-2] (puzzle (switch architecture): Small Loop Exclusion NG 1)”, the entries for the “apparent KD of MS2 coat protein” value in the data set with MS2 coat protein [2] (input ligand: FMN 200 uM) and in the data set with MS2 coat protein [2] (input ligand: none) were 7.19 nM and 6.8 nM, respectively.

Regarding “AAAUAAUCCUUAGGAUAUGACUCCGAAACGGAGUCAGAAGGGAGGAUCACCCUCUUCAGCUCAGCGUCGAAAGACGCUGAGCAA [#SharedSequence ExNG1 - 22] (puzzle (switch architecture): Exclusion NG 1)”, the “apparent KD of MS2 coat protein” value in the data set on MS2 coat protein [2] (input ligand: FMN 200 uM) stood at 200 nM; in the data set on MS2 coat protein [2] (input ligand: none) it was 72.8 nM.

In the case of “GAUCCGAGCACAGGAUAUGUUAGAGAGGGUGAGACAGAAGGGUGCUCCGGUAAGGCCAAGCACAUGAGGAUCACCCAUGUACAU [Orbezaen]”, the “apparent KD of MS2 coat protein” value in the data set with MS2 coat protein [1] (input ligand: FMN 200 uM) turned out to be 64.9 nM; in the data set on MS2 coat protein [1] (input ligand: none), 29.7 nM.

Take “CCCGGUGACUAGAAGGCGCCACAUGAGGAUCACCCAUGUAUCAAAGACCGGUGAUUGCCGACGGGCGAGGAUAUAGGUGCGACG [EternaBot1154] (puzzle (switch architecture): Inverted Exclusion NG 2)”: in the data set on MS2 coat protein [2] (input ligand: none), the “apparent KD of MS2 coat protein” value stood at 8.19 nM.

Turning to “UAAUAUAUAUAGAAGGACAUGAGGAUCACCCAUGUCGCCGGGCCCGGGAAACCGGGCCCGGCCAUGUAGGAUAUAUAUAUAUUA [#This is a good prank 10] (puzzle (switch architecture): Inverted Exclusion NG 2)”, the results for the “apparent KD of MS2 coat protein” value in the data set with MS2 coat protein [2] (input ligand: FMN 200 uM) and with MS2 coat protein [2] (input ligand: none) were 5.17 nM and 4.9 nM, respectively.

In the case of “GGUGCACGCACAGGAUAUCCGGCGAAGCUCGUCGGAGAAGGGUGACAUGAGGAUCACCCAUGUACGUGCAGCCAAGUUUGAGAG [Laaar] (puzzle (switch architecture): Same State NG 1)”, the “apparent KD of MS2 coat protein” value is 47.6 nM in the data set on MS2 coat protein [2] (input ligand: FMN 200 uM) and 26.8 nM with MS2 coat protein [2] (input ligand: none).

In the case of “GACUGCAGGAUAACAACCUGCAGUCACUUCUGAGGAUCACCCAGAAGGGCUGAGGUAAUACCUCAGCAGGAUAUGGAGUGUAAA [#SharedSequence IExNG# - 8] (puzzle (switch architecture): Inverted Exclusion NG 3)”, the entries for the “apparent KD of MS2 coat protein” value with MS2 coat protein [2] (input ligand: FMN 200 uM) and with MS2 coat protein [2] (input ligand: none) were 70.1 nM and 21.9 nM, respectively.

Consider “GGAGAUACAUGAGGAUCACCCAUGUAGGAUAUCGGGCCCGGGCCCGGCGAAAGCCGGGCCCGGGCCGAGAAGGGCGUACACACC [#LOL-2] (puzzle (switch architecture): Small Loop Exclusion NG 3)”, for which the “apparent KD of MS2 coat protein” value worked out at 5.79 nM in the data set on MS2 coat protein [2] (input ligand: FMN 200 uM) and 7.3 nM with MS2 coat protein [2] (input ligand: none).

Consider “GGUUGACGACAAUUACAUGAGGAUCACCCAUGUUGUGGGAUGCAGGAUAUGUGGUAUAUUAUUUAACAGAAGGGCAAUAAUUUU [JR_SSNG3_Sub063]”, for which the results for the “apparent KD of MS2 coat protein” value with MS2 coat protein [1] (input ligand: FMN 200 uM) and in the data set on MS2 coat protein [1] (input ligand: none) were 54.7 nM and 32.3 nM, respectively.

For the sequence “UAAAUAGAUCCUAGAGGAUCACCCUAGGAUAUCACCGUCGAGGUGCCAUAAUGGCACCUCGACGGUGAGAAGGAGGAAAAUAAA [#SharedSequence - SLExNG3: 5] (puzzle (switch architecture): Small Loop Exclusion NG 3)”, the “apparent KD of MS2 coat protein” value with MS2 coat protein [2] (input ligand: FMN 200 uM) was 21.8 nM; in the data set with MS2 coat protein [2] (input ligand: none) it was 11.5 nM.

Turning to “CGGGAUAUGAAGGGCGAAAGCCCACAUGAGGAUCACCCAUGUAGAAGGCGGGCCGCAACGCGGCCCGAGGAUAUACAAUAUCCA [#my 7th design] (puzzle (switch architecture): Inverted Exclusion NG 3)”, the “apparent KD of MS2 coat protein” value with MS2 coat protein [2] (input ligand: FMN 200 uM) stood at 13.1 nM; in the data set on MS2 coat protein [2] (input ligand: none), 9.05 nM.

“UUACUCAUGUAAGGAUAUGCAGCCGAAACGGCUGCAGAAGGUACUAUAAUACAUGAGGAUCACCCAUGUAAAAUAUAUAAAGUU (puzzle (switch architecture): Same State NG 1)”: the figures for the “apparent KD of MS2 coat protein” value in the data set with MS2 coat protein [2] (input ligand: FMN 200 uM) and with MS2 coat protein [2] (input ligand: none) were 18.3 nM and 29.3 nM, respectively.

Take “AAAUAACUUGAAGGAUAUCAGGGUGCACCUCAGUAAAACUGAGGUGCACCCUGAGAAGGUCGAGGAUCACCCGACCUAAAUAAA [#SharedSequence SLExNG1: 6-2] (puzzle (switch architecture): Small Loop Exclusion NG 1)”: the “apparent KD of MS2 coat protein” value was 7.27 nM in the data set with MS2 coat protein [2] (input ligand: FMN 200 uM) and 5.76 nM in the data set on MS2 coat protein [2] (input ligand: none).

On to “AGACCUGCUCAGAAGGAGAGUGCGAGGCUGGAAACAGCCUCGAACUAGAAACCUAGAGGAUCACCCUAGGAUAUGAGCAGGUCA [#SharedSequence - IExNG2: 10] (puzzle (switch architecture): Inverted Exclusion NG 2)”, for which the results for the “apparent KD of MS2 coat protein” value in the data set with MS2 coat protein [2] (input ligand: FMN 200 uM) and in the data set with MS2 coat protein [2] (input ligand: none) were 5.58 nM and 5.51 nM, respectively.

“CGUAGUCCGUAGAAGGGUGACAUGAGGAUCACCCAUGUGCGAGCGGAGGGAGUCAGCGGCUCGCCACAGGAUAUACGGAGCACG [Eniszabe] (puzzle (switch architecture): Inverted Same State NG 2)”: the entries for the “apparent KD of MS2 coat protein” value in the data set on MS2 coat protein [2] (input ligand: FMN 200 uM) and in the data set on MS2 coat protein [2] (input ligand: none) were 28.8 nM and 137 nM, respectively.

As to “ACACGUCGUGAGAAGGAGGAUCACCCUUUCGAAAGAAAGAGCCACCGUGAAAACGGUGGCAAAUUCUAGGAUAUCACGACGUGA [#SharedSequence - IExNG2: 2] (puzzle (switch architecture): Inverted Exclusion NG 2)”, the “apparent KD of MS2 coat protein” value was determined as 363 nM with MS2 coat protein [2] (input ligand: FMN 200 uM) and 230 nM with MS2 coat protein [2] (input ligand: none).

For “GUCACGGUUAAUUCCGUGACGCGCAAUCCUUGAGGAUCACCCAAGGAUAUCGACGUCAAUGACGUCGAGAAGGUGGUUGAGCGC [#SharedSequence2] (puzzle (switch architecture): Exclusion NG 3)”, the “apparent KD of MS2 coat protein” value is 23.5 nM with MS2 coat protein [2] (input ligand: FMN 200 uM) and 13.6 nM in the data set with MS2 coat protein [2] (input ligand: none).

On to “UUGGACGUCGUAGGAUAUGUAGGAUAUUCCUACAUGAGGAUCACCCAUGUUGACAUGGAAGAAGGACAGAAGGACGAUGUCCAU (puzzle (switch architecture): Same State NG 2)”, for which the entries for the “apparent KD of MS2 coat protein” value in the data set on MS2 coat protein [2] (input ligand: FMN 200 uM) and with MS2 coat protein [2] (input ligand: none) were 4.56 nM and 217 nM, respectively.

On to “GUCAGCUCGUGAGGAUAUACAACACUGCUUCGGCAGUGUAUUAAGAUCACAUGAGGAUCACCCAUGUAGAAGGCACGAGCUGAU (puzzle (switch architecture): Exclusion NG 2)”, for which the “apparent KD of MS2 coat protein” value in the data set with MS2 coat protein [2] (input ligand: FMN 200 uM) was 240 nM; with MS2 coat protein [2] (input ligand: none), 13.9 nM.

Turning to “GGUCGACUUCAAGGAUAUGGACUGCAAAGCAGUCCAGAAGGUGAGGAUCACCCAUCUACGGUCAGGAAACUGACCGAUCGACCA [#SharedSequence - ExNG1-8] (puzzle (switch architecture): Exclusion NG 1)”, the “apparent KD of MS2 coat protein” value in the data set on MS2 coat protein [2] (input ligand: FMN 200 uM) was found to be 117 nM; in the data set on MS2 coat protein [2] (input ligand: none) it was 86.2 nM.

Turning to “AGGAGAAAUGUAGGAUAUGGGCGGGCGGACGGGCAAAGCGCGUCCGCCCGCCCAGAAGGACAUGAGGAUCACCCAUGUUUCCCU [Wow, my 5th design!] (puzzle (switch architecture): Small Loop Exclusion NG 1)”, the “apparent KD of MS2 coat protein” value is 13 nM in the data set with MS2 coat protein [2] (input ligand: FMN 200 uM) and 12.2 nM in the data set on MS2 coat protein [2] (input ligand: none).

“GGAUAGGACAGAGGAUAUACGUGCUAGAGAUACUAGCAAAAUUUCCUCACAUGAGGAUCACCCAUGUAGAAGGCUGUCCUAUCG (puzzle (switch architecture): Exclusion NG 2)”: the “apparent KD of MS2 coat protein” value is 415 nM in the data set with MS2 coat protein [2] (input ligand: FMN 200 uM) and 15.7 nM with MS2 coat protein [2] (input ligand: none).

Consider “GGAGAUACAUGAGGAUCACCCAUGUAGGAUAUAUAGUAUAUAUAUAUUGAAAGGUAUAUAUAUAUAUAGAAGGGCGUGCACACC [#LOL-18] (puzzle (switch architecture): Small Loop Exclusion NG 3)”, for which the “apparent KD of MS2 coat protein” value is 6.73 nM in the data set with MS2 coat protein [2] (input ligand: FMN 200 uM) and 9.07 nM with MS2 coat protein [2] (input ligand: none).

Turning to “AACAAUCUAUCUGAGGAUAUCAUUUCAAAGACAUGAGGAUCACCCAUGUGCAGGAAAACUGCAAAUGAGAAGGCAGAUAGAUUGA [SS2: 1107]”, the “apparent KD of MS2 coat protein” value in the data set on MS2 coat protein [3] came out at 10.3 nM; in the data set with MS2 coat protein [4], 14.5 nM.

Take “ACUAUACAUGAGGAUCACCCAUGUCAGGUGGGACUAGGAUAUCAAAAGCCAGAGUAAGAAUGAGAAGGAGUAGAAA [JR_SS001_Sub304]”: the figures for the “apparent KD of MS2 coat protein” value with MS2 coat protein [3] and with MS2 coat protein [4] were 66.4 nM and 69.3 nM, respectively.

Regarding “GAAAAACAUGAGGAUCACCCAUGUAGAAAUAUGGGAGGAUAUACGAACUCGAAAGUCAAAGUAGAAGGCCUAAAAG [Garnet 30]”, the results for the “apparent KD of MS2 coat protein” value in the data set on MS2 coat protein [3] and in the data set on MS2 coat protein [4] were 47 nM and 130 nM, respectively.

“AACAAUCUAUCUGAGGAUAUGAUGUCAAAGACAUGAGGAUCACCCAUGUGCAGGAAAACUGCAUAUCAGAAGGCAGAUAGAUUGA [SS2: 1103]”: the entries for the “apparent KD of MS2 coat protein” value in the data set on MS2 coat protein [3] and in the data set on MS2 coat protein [4] were 15.6 nM and 18.4 nM, respectively.

Regarding “AACAAACAUGAGGAUCACCCAUGUAGAAACAUGGGAGGAUAUACGAAGACGAAAGUCAAAGUAGAAGGCCUAAAAA [Garnet 91]”, the “apparent KD of MS2 coat protein” value in the data set with MS2 coat protein [3] was determined as 69.1 nM; with MS2 coat protein [4], 60.9 nM.
